According to patent publication US20240010721A1 (HARBOUR BIOMED SHANGHAI, published 2024):

Tests used:
[1] = target: T1, hROR2ECD-his (human, UniProt Q01974 34-403); assay: ELISA, plate coated with hROR2 ECD-his
T1 construct: extracellular domain; bought, Acrobiosystems R02-H52E5; also called huROR2-his
Method: (§1) Screening by ELISA assay: 96-well plates (Corning 9018) were coated with 1 μg/mL hROR1 ECD-his/hROR2 ECD-his/mROR1 ECD-his proteins prepared with PBS in Example 1a above and incubated at 4° C. overnight. The liquid was then discarded, and the plates were washed 3 times with PBST, blocked with 5% milk for 2 h at room temperature, and washed 3 times with PBST. The taken supernatant was added at 100 μL/well, and the plates were incubated at room temperature for 1 h, followed by washing 3 times with PBST. 100 μL/well of secondary antibody (Sigma, Cat#: A8592) was added, the plates were incubated at room temperature for 1 h, and then washed. TMB was then added to the plates at 100 μL/well and incubated for 15 min at room temperature. Thereafter, the reaction was terminated and data were read.
(§2) a. Results of ELISA assay (the ELISA assay was performed according to the same procedures as in Example 2c, except that the added samples were recombinant antibodies and the secondary antibody was a-Fc (Genscript, Cat#: A01854))
The corresponding values in the table are the measured median fluorescence intensity (MFI).

[2] = target: T2, human ROR1 (hROR1) on cells (human, UniProt Q01973 30-937); assay: FACS, A549 cells
T2 construct: whole, on cells; the cell line is named under assay; also called HEK293T-hROR1; 293T-hROR1
Method: (§3) The binding properties were characterized by FACS. The recombinant antibodies obtained above were serially diluted to 9 different concentrations and incubated for 1 h, and then determined for the binding ability with HEK293T-hROR1, CHO-K1-cynoROR1 and A549 cell lines (endogenously expressing ROR1), respectively. The secondary antibody was then incubated for 1 h. The results are shown in FIG. 4-6 and Table 7-2 below.

[3] = target: T3, cynomolgus ROR1 (cynoROR1) on CHO-K1 cells (cynomolgus, UniProt A0A2K5WTX7 30-937); assay: FACS, CHO-K1-cynoROR1 cells
T3 construct: whole, on cells; also called CHO-K1-cynoROR1; CHO-K1-cyROR1
Method: as §3

[4] = target: T4, ROR1 (antigen of the KD determination and of the Octet dissociation measurement) (UniProt Q01973 30-403, limits assumed); assay: method not stated (conventional procedures)
[5] = target: T1, hROR2ECD-his; assay: ELISA, plate coated with hROR2 ECD-his; remark: listed apart in the source
Method: as §1, §2

[6] = target: T2, human ROR1 (hROR1) on cells; assay: FACS, HEK293T-hROR1 cells; cytometer saturated
Method: as §3

[7] = target: T5, Human ROR1-ECD-his (human, UniProt Q01973 30-406); assay: ELISA, plate coated with hROR1 ECD-his
T5 construct: extracellular domain; bought, Acrobiosystems RO1-H522y; also called hROR1-ECD-his; hROR1 ECD-his
Method: as §1, §2

[8] = target: T2, human ROR1 (hROR1) on cells; assay: FACS, HEK293T-hROR1 cells
Method: as §3

[9] = target: T2, human ROR1 (hROR1) on cells; assay: FACS, HEK293T-hROR1 cells; remark: listed apart in the source
[10] = target: T4, ROR1 (antigen of the KD determination …); assay: Octet, antigen form not stated
[11] = target: T2, human ROR1 (hROR1) on cells; assay: FACS, Panc-1 cells

T1 sequence (Q01974 34-403): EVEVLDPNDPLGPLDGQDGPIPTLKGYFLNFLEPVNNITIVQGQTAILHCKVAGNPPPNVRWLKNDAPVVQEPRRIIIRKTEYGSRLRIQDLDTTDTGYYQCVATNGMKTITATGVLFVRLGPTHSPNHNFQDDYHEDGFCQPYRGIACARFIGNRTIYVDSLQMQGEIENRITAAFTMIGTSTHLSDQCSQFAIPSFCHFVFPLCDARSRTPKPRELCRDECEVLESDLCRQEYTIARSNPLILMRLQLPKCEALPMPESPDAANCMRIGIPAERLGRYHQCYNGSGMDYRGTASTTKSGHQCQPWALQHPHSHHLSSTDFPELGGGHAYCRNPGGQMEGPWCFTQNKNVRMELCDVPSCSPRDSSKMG
T4 sequence (Q01973 30-403 limits assumed): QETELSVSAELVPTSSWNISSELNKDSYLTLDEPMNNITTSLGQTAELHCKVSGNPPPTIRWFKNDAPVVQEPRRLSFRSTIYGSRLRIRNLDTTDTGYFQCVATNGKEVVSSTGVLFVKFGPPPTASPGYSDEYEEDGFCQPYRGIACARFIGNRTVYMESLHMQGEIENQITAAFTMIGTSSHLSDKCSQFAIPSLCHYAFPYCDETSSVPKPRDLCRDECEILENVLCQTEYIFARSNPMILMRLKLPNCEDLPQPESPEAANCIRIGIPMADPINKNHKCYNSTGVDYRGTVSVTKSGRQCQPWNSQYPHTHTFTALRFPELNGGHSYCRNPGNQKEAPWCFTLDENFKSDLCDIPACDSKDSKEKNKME
T2 sequence (Q01973 30-937): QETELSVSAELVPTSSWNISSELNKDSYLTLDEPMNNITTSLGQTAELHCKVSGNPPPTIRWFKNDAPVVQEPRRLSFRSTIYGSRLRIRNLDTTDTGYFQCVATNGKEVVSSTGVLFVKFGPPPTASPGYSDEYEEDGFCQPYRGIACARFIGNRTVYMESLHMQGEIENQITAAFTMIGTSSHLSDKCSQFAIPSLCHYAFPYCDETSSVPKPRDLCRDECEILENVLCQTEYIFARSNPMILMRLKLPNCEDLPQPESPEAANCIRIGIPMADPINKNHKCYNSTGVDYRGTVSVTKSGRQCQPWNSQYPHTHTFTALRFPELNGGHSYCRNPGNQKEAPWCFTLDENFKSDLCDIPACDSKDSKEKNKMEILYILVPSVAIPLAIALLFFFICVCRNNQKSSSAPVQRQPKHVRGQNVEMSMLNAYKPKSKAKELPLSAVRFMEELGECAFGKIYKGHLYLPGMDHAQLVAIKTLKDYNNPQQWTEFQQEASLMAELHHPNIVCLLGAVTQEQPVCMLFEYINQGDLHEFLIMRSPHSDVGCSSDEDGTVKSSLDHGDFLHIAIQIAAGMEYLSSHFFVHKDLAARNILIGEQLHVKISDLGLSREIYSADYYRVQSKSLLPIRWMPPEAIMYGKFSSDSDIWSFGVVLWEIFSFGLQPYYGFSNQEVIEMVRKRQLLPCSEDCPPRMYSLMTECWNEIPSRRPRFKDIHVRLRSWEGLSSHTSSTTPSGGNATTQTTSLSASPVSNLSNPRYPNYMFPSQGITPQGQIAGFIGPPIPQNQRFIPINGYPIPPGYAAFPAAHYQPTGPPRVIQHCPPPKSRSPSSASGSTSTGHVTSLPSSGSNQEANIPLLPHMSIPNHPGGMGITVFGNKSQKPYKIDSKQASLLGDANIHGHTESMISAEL
T5 sequence (Q01973 30-406): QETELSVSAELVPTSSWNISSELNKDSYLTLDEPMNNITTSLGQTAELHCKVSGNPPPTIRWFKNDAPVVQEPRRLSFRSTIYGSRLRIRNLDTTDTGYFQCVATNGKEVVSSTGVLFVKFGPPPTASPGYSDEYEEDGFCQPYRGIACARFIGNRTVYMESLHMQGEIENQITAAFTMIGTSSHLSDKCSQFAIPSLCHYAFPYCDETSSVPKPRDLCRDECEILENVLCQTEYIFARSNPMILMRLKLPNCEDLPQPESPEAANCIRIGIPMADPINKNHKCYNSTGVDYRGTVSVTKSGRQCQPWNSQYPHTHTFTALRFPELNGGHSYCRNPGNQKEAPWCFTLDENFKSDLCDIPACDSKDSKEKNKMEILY

Row | binding result [1] | MAX(MFI) [2] [MFI] | MAX(MFI) [3] [MFI] | Kd [4] [nM] | koff [4] [s⁻¹] | kon [4] [M⁻¹ s⁻¹] | ELISA signal (called MFI) [5] | MAX(MFI) [6] [MFI] | ELISA signal (called MFI) [7] | fold lower EC50 than reference PR000374 [8] [fold] | MFI [9] [MFI] | Response [10] | koff [10] [s⁻¹] | MFI [11] [MFI] | Binder
1 | no binding | 4050 | 25000 | 0.804 | 0.000248 | 309000 | 0.0315 | 262000 | 2.44 | 10 |  |  |  |  | PR001360 (antibody, human IgG1, kappa, V domains shown, fully human IgG1, kappa) VH: QVQLVESGGGVVQPGRSLRLSCAASGFTFSSYGMHWVRQAPGKGLEWVAVIWYDGSDKDSVDSVKGRFTISRDDSKNTLYLQMNSLRAEDTAVYYCAREQARSFDLWGRGTLVTVSS VL: DIQMTQSPSTLSASVGDRVTITCRASQTINNWLAWYQQKPGKAPKLLIYKASSLESGVPSRFSGSGSGTEFTLTISSLQPDDFATYYCQQYNIYSPMYTFGQGTKVEIKR
2 | no binding | 4520 | 30700 | 1.51 | 0.000476 | 316000 | 0.0335 | 262000 | 2.48 | 10 |  |  |  |  | PR001352 (antibody, human IgG1, kappa, V domains shown, fully human IgG1, kappa) VH: EVQLLESGGGVVQPGRSLRLSCAASGFTFSSYGMHWVRQAPGKGLEWVAVKWYDGISQNFADSVKGRFTISRDNSKNTLYLQMNSLRAEDTAVYYCARDLARSFDLWGRGTLVTVSS VL: DIQLTQSPSSLSASVGDRVTITCRASQTINNWLAWYQQKPGKAPKLLIYKASSLESGVPSRFSGSGSGTEFTLTISSLQPDDFATYYCQQYNSYSPMYTFGQGTKVEIKR
3 | no binding | 4970 | 27300 | 1.07 | 0.000518 | 482000 | 0.049 | 262000 | 2.47 | 10 |  |  |  |  | PR001358 (antibody, human IgG1, kappa, V domains shown, fully human IgG1, kappa) VH: QVQLVQSGGGVVQPGRSLRLSCAASGFTFSSYAMHWVRQAPGKGLEWVAIMWYDGSNTDYADSVKGRFTISRDTSKNTLFLQMNSLRAEDTAVYYCAREQARSFDLWGRGTLVTVSS VL: DIVMTQSPSTLSASVGDRVTITCRASQSINSWLAWYQQKPGKAPKLLIYKASNLESGVPSRFSGSGSGTEFTLTISSLQPDDFATYYCQQYKSYSPMYTFGQGTKVDIKR
4 | no binding | 3920 | 26000 | 3.97 | 0.00113 | 285000 | 0.0335 | 262000 | 2.53 | 10 |  |  |  |  | PR001370 (antibody, V domains shown, fully human IgG1, kappa) VH: EVQLLESGGGVVQPGRSLRLSCAASGFTFSSYGMHWVRQAPGKGLEWVAVKWYDGISQNFADSVKGRFTISRDNSKNTLYLQMNSLRAEDTAVYYCARDLARSFDLWGRGTLVTVSS VL: DIVMTQSPSTLSASVGDRVTITCRASQSINNWLAWYQQKPGKAPKLLIYKASSLESGVPSRFSGSGSGTEFTLTISSLQPDDFATYYCQQYNSYSPMYTFGQGTKVDIKR
5 | no binding | 3450 | 21200 | 3.06 | 0.00104 | 341000 | 0.0235 | 262000 | 2.38 | 10 |  |  |  |  | PR001367 (antibody, human IgG1, kappa, V domains shown, fully human IgG1, kappa) VH: QVQLVESGGGVVQPGRSLRLSCAASGFSFSSYAMHWVRQAPGRGLEWVAVIWYDGGDEDYIDSVKGRFTISRDDSKNTLYLQMNSLRAEDTAVYYCAREQARSFDLWGRGTLVTVSS VL: DVVMTQSPSTLSASVGDRVTITCRASQTINNWLAWYQQKPGKAPKLLIYKASSLESGVPSRFSGSGSGTEFTLTISSLQPDDFATYYCQQYNSYSPMYTFGQGTKVEIKR
6 | no binding | 4210 | 27800 | 2.16 | 0.000867 | 402000 | 0.0255 | 262000 | 2.51 | 10 |  |  |  |  | PR001368 (antibody, V domains shown, fully human IgG1, kappa) VH: QVQLVESGGGVVQPGRSLRLSCAASGFTFSTYGMHWVRQAPGKGLEWVAVIWYDGSDTDYADSVKGRFTISRDTSKNTLYLQMNSLRAEDTAVYYCAREQARSFDLWGRGTLVTVSS VL: DIVMTQSPSTLSASVGDRVTITCRASQSINSWLAWYQQKPGKAPKLLIYKASSLESGVPSRFSGSGSGTEFTLTISSLQPDDFATYYCQQYKSYSPMYTFGQGTKVEIKR
7 |  |  |  |  |  |  |  |  |  |  | 41500 | 0.756 | 0.000394 | 2950 | PR002587 (antibody, human IgG1, kappa, V domains shown, PR001369 variant: VH G55A, VL S93A; hIgG1; also called anti-ROR1 1015M3-H10(H: G55A; L: S93A) hIgG1) VH: QVQLVESGGGVVQPGRSLRLSCAASGFTFSNYGIHWVRQAPGKGLEWVAIMWYDASNTDYADSVKGRFTISRDTSKNTLFLQMNSLRAEDTAVYYCAREQARSFDLWGRGTLVTVSS VL: DIVMTQSPSTLSASVGDRVTITCRASQTINNWLAWYQQKPGKAPKLLIYKASSLESGVPSRFSGSGSGTEFTLTISSLQPDDFATYYCQQYNAYSPMYTFGQGTKVEIKR
8 | no binding | 4110 | 28400 | 1.76 | 0.000525 | 298000 | 0.0235 | 262000 | 2.38 | 10 |  |  |  |  | PR001371 (antibody, human IgG1, kappa, V domains shown, fully human IgG1, kappa) VH: QVQLVESGGGVVQPGRSLRLSCAASGFTFSSYGMLWVRQAPGKGLEWVAVAWYDGVSEDYADSVKGRFTISRDNSMNTLSLQMNSLRAEDTAVYYCAREQARSFDLWGRGTLVTVSS VL: DIQLTQSPSSLSASVGDRVTITCRASQTINNWLAWYQQKPGKAPKLLIYKASSLESGVPSRFSGSGSGTEFTLTISSLQPDDFATYYCQQYNSYSPMYTFGQGTKVEIKR
9 | no binding | 4400 | 22100 | 0.237 | 7.72e-05 | 325000 | 0.0285 | 262000 | 2.35 | 10 |  |  |  |  | PR001365 (antibody, human IgG1, kappa, V domains shown, fully human IgG1, kappa) VH: QVQLVQSGGGVVQPGRSLRLSCAASGFTFSSYGMHWVRQAPGKGLEWVAVIWYDGSDKDYADSVKGRFTISRDTSKNTLYLQMNSLRAEDTAVYYCAREQARSFDLWGRGTLVTVSS VL: DIQMTQSPYSLSASVGDRVTITCRASQTINNWLAWYQQKPGKAPKLLIYKASSLESGVPSRFSGSGSGTEFTLTISSLQPDDFATYYCQQYKLYSPMYTFGQGTKVEIKR
10 | no binding | 3700 | 17200 | 2.9 | 0.00101 | 348000 | 0.0305 | 262000 | 2.45 | 10 |  |  |  |  | PR001363 (antibody, human IgG1, kappa, V domains shown, fully human IgG1, kappa) VH: QVQLVESGGGVVQPGRSLRLSCAASGFSFSSYAMHWVRQAPGRGLEWVAVIWYDGGDEDSIDSVKGRFTISRDDSKNTLYLQMNSLRAEDTAVYYCAREQARSFDLWGRGTLVTVSS VL: DVVMTQSPSTLSASVGDRVTITCRASQTINNWLAWYQQKPGKAPKLLIYKASSLESGVPSRFSGSGSGTEFTLTISSLQPDDFATYYCQQYNSYSPMYTFGQGTKVEIKR
